The results in this text go back to patent publication US10253076B2, “Peptides and combination of peptides for use in immunotherapy against ovarian cancer and other cancers” (immatics biotechnologies GmbH, priority 2015, dated 2019).

For the experiment, the target named is HLA-A*02:01 (Homo sapiens, UniProt P04439, D140Y/D185E/D98H/E176V/E277Q/G131W/G231S/I119V/I121R/I166T/I218V/L300P/L318F/N151K/N90K/P208A/P217A/Q86G/Q94H/R138H/R169H/T345S). As to the kind of experiment: MHC binding assay (UV-ligand exchange, beta2m ELISA, peptide exchange yield). Particulars: binding of HLA-class I restricted peptides to HLA-A*02:01, ranged by peptide exchange yield (UV-ligand exchange, β2m ELISA). An excerpt: Candidate peptides for T cell based therapies according to the present invention were further tested for their MHC binding capacity (affinity). The individual peptide-MHC complexes were produced by UV-ligand exchange, where a UV-sensitive peptide is cleaved upon UV-irradiation, and exchanged with the peptide of interest as analyzed. Only peptide candidates that can effectively bind and stabilize the peptide-receptive MHC molecules prevent dissociation of the MHC complexes. To determine the yield of the exchange reaction, an ELISA was performed based on the detection of the light chain (β2m) of stabilized MHC complexes. The assay was performed as generally described in Rodenko et al. (Rodenko et al., 2006).
96 well MAXISorp plates (NUNC) were coated over night with 2ug/ml streptavidin in PBS at room temperature, washed 4× and blocked for 1 h at 37° C. in 2% BSA containing blocking buffer. […] Peptide-MHC monomers of the UV-exchange reaction were diluted 100 fold in blocking buffer. Samples were incubated for 1 h at 37° C., washed four times, incubated with 2ug/ml HRP conjugated anti-82m for 1 h at 37° C., washed again and detected with TMB solution that is stopped with […]. Absorption was measured at 450 nm. Candidate peptides that show a high exchange yield (preferably higher than 50%, most preferred higher than 75%) are generally preferred for a generation and production of antibodies or fragments thereof, and/or T cell receptors or fragments thereof, as they show sufficient avidity to the MHC molecules and prevent dissociation of the MHC complexes.

With “137 (TLVLTLPTV; listed as Homo sapiens) [compound 137]”, the Peptide exchange entry was “″++++″ (≥75% = ++++)”. With “409 (LLDAMNYHL; listed as Homo sapiens) [compound 409]” the entry was “″++″ (≥20% = ++)”; with “220 (LLQKFVPEI; listed as Homo sapiens) [compound 220]”, “″++″ (≥20% = ++)”. With “114 (SLVGEPILQNV; listed as Homo sapiens) [compound 114]” the entry was “″++″ (≥20% = ++)”; with “314 (ALIAEGIALV; listed as Homo sapiens) [compound 314]”, “″+++″ (≥50% = +++)”. As to “359 (YLLPESVDL; listed as Homo sapiens) [compound 359]”, the Peptide exchange result is reported as “″+++″ (≥50% = +++)”. With “381 (FIDEAYVEV; listed as Homo sapiens) [compound 381]”, the Peptide exchange result is given as “″++″ (≥20% = ++)”. As for “151 (KILQQLVTL; listed as Homo sapiens) [compound 151]”, the entry is “″+++″ (≥50% = +++)”; as for “1 (SLMEPPAVLLL; listed as Homo sapiens) [compound 1]”, “″+++″ (≥50% = +++)”; as for “47 (ILLSVPLLVV; listed as Homo sapiens) [compound 47]”, “″++″ (≥20% = ++)”.

As to “296 (FMEGAIIYV; listed as Homo sapiens) [compound 296]”, the Peptide exchange entry is “″+++″ (≥50% = +++)”.

On to “235 (YLNDLHEVLL; listed as Homo sapiens) [compound 235]”, for which the Peptide exchange entry was “″++++″ (≥75% = ++++)”. With “398 (KLLEEDGTIITL; listed as Homo sapiens) [compound 398]” the entry was “″++″ (≥20% = ++)”; with “93 (LLQAIKLYL; listed as Homo sapiens) [compound 93]”, “″++″ (≥20% = ++)”; with “317 (SLAALVVHV; listed as Homo sapiens) [compound 317]”, “″+++″ (≥50% = +++)”.

As for “345 (VIWKALIHL; listed as Homo sapiens) [compound 345]”, the Peptide exchange entry was “″+++″ (≥50% = +++)”. As for “341 (SQIALNEKLVNL; listed as Homo sapiens) [compound 341]”, the entry is “″+++″ (≥50% = +++)”; as for “62 (VLLDVSAGQLLM; listed as Homo sapiens) [compound 62]”, “″++++″ (≥75% = ++++)”; as for “563 (WLLPYNGVTV; listed as Homo sapiens) [compound 563]”, “″+++″ (≥50% = +++)”. With “356 (KLLGKLPEL; listed as Homo sapiens) [compound 356]” the entry was “″+++″ (≥50% = +++)”. As to “212 (ALWDQDNLSV; listed as Homo sapiens) [compound 212]”, the Peptide exchange entry is “″++″ (≥20% = ++)”. With “135 (ALSEVDFQL; listed as Homo sapiens) [compound 135]” the entry was “″+++″ (≥50% = +++)”; with “431 (SLVNVVPKL; listed as Homo sapiens) [compound 431]”, “″++″ (≥20% = ++)”.

“175 (YLFENISQL; listed as Homo sapiens) [compound 175]”: the Peptide exchange result is given as “″+++″ (≥50% = +++)”. With “29 (KMLGIPISNILMV; listed as Homo sapiens) [compound 29]” the entry was “″+++″ (≥50% = +++)”; with “149 (NLLELFVQL; listed as Homo sapiens) [compound 149]”, “″+++″ (≥50% = +++)”; with “162 (YQQAQVPSV; listed as Homo sapiens) [compound 162]”, “″+++″ (≥50% = +++)”. With “168 (KILDADIQL; listed as Homo sapiens) [compound 168]” the entry was “″++++″ (≥75% = ++++)”.

On to “245 (SMIDDLLGV; listed as Homo sapiens) [compound 245]”, for which the Peptide exchange result is reported as “″+++″ (≥50% = +++)”. As for “76 (ILIDSIYKV; listed as Homo sapiens) [compound 76]”, the Peptide exchange result is “″+++″ (≥50% = +++)”. With “318 (GLINTGVLSV; listed as Homo sapiens) [compound 318]” the entry was “″++″ (≥20% = ++)”; with “103 (TLAEEVVAL; listed as Homo sapiens) [compound 103]”, “″+++″ (≥50% = +++)”. As to “619 (ALQDRVPLA; listed as Homo sapiens) [compound 619]”, the Peptide exchange entry is on record as “″+++″ (≥50% = +++)”.

As to “244 (SLFGGTEITI; listed as Homo sapiens) [compound 244]”, the Peptide exchange result is recorded as “″+++″ (≥50% = +++)”.

In the case of “336 (ILLTAIVQV; listed as Homo sapiens) [compound 336]”, the Peptide exchange result was “″+++″ (≥50% = +++)”. As for “492 (SLFDGFADGLGV; listed as Homo sapiens) [compound 492]”, the entry is “″+++″ (≥50% = +++)”; as for “176 (YLMEGSYNKVFL; listed as Homo sapiens) [compound 176]”, “″++″ (≥20% = ++)”.

Turning to “397 (YLFGERLLEC; listed as Homo sapiens) [compound 397]”, the Peptide exchange entry is given as “″+++″ (≥50% = +++)”.

With “107 (FLQPVDDTQHL; listed as Homo sapiens) [compound 107]”, the Peptide exchange entry is “″+++″ (≥50% = +++)”. Turning to “40 (TLLVKVFSV; listed as Homo sapiens) [compound 40]”, the Peptide exchange entry is recorded as “″+++″ (≥50% = +++)”. With “92 (YLIPFTGIVGL; listed as Homo sapiens) [compound 92]” the entry was “″++″ (≥20% = ++)”. With “486 (AVMESIQGV; listed as Homo sapiens) [compound 486]” the entry was “″+++″ (≥50% = +++)”; with “388 (SLTIDGIRYV; listed as Homo sapiens) [compound 388]”, “″+++″ (≥50% = +++)”. With “201 (RLVDYLEGI; listed as Homo sapiens) [compound 201]” the entry was “″+++″ (≥50% = +++)”. On to “458 (SLIDKLYNI; listed as Homo sapiens) [compound 458]”, for which the Peptide exchange result is “″++″ (≥20% = ++)”. As for “200 (LLFGSVQEV; listed as Homo sapiens) [compound 200]”, the entry is “″+++″ (≥50% = +++)”. With “280 (VLPDPEVLEAV; listed as Homo sapiens) [compound 280]” the entry was “″+++″ (≥50% = +++)”. As for “184 (YLMDINGKMWL; listed as Homo sapiens) [compound 184]”, the entry is “″+++″ (≥50% = +++)”; as for “95 (SVIPQIQKV; listed as Homo sapiens) [compound 95]”, “″+++″ (≥50% = +++)”.

“620 (KLLNKIYEA; listed as Homo sapiens) [compound 620]”: the Peptide exchange entry is reported as “″++++″ (≥75% = ++++)”. As for “153 (FLIANVLYL; listed as Homo sapiens) [compound 153]”, the entry is “″+″ (≥10% = +)”; as for “357 (SMHDLVLQV; listed as Homo sapiens) [compound 357]”, “″+++″ (≥50% = +++)”; as for “189 (ALQRKLPYV; listed as Homo sapiens) [compound 189]”, “″+++″ (≥50% = +++)”. As to “52 (FLLAHGLGFLL; listed as Homo sapiens) [compound 52]”, the Peptide exchange result is recorded as “″++++″ (≥75% = ++++)”. As for “159 (GLVGNPLPSV; listed as Homo sapiens) [compound 159]”, the entry is “″++++″ (≥75% = ++++)”.

As for “446 (QLIPALAKV; listed as Homo sapiens) [compound 446]”, the Peptide exchange result is given as “″+++″ (≥50% = +++)”.

On to “42 (VLLQKIVSA; listed as Homo sapiens) [compound 42]”, for which the Peptide exchange entry is “″+++″ (≥50% = +++)”. With “385 (SLLEQGLVEA; listed as Homo sapiens) [compound 385]”, the Peptide exchange result is given as “″++″ (≥20% = ++)”. As for “612 (YLYNEGLSV; listed as Homo sapiens) [compound 612]”, the Peptide exchange entry was “″+++″ (≥50% = +++)”. “186 (TLFFQQNAL; listed as Homo sapiens) [compound 186]”: the Peptide exchange entry is “″++″ (≥20% = ++)”.

Take “263 (LLVSNLDFGV; listed as Homo sapiens) [compound 263]”: the Peptide exchange result was “″+++″ (≥50% = +++)”. With “124 (ALYETELADA; listed as Homo sapiens) [compound 124]” the entry was “″++″ (≥20% = ++)”; with “528 (SVAEGRALMSV; listed as Homo sapiens) [compound 528]”, “″+++″ (≥50% = +++)”. Take “125 (VQIHQVAQV; listed as Homo sapiens) [compound 125]”: the Peptide exchange entry was “″+++″ (≥50% = +++)”.
